The term EC50 denotes the concentration needed to bring the measured effect to its halfway point. Broadly, the Kd is the concentration at which binding is half-saturated. A word on the koff: it is the rate constant with which the complex falls apart. As a reminder, the kon is the second-order rate constant of association.

Experimental findings from patent US20260250420A1 (SICHUAN KELUN BIOTECH BIOPHARMACEUTICAL, published 2026) are described below.

To fix the notation:
B1: Hu24 (PTK7 control antibody, taken from Hu24 in the Patent CN201580030255) (antibody)
chain 1: QVQLVQSGPEVKKPGASVKVSCKASGYTFTDYAVHWVRQAPGKRLEWIGVISTYNDYTYNNQDFKGRVTMTRDTSASTAYMELSRLRSEDTAVYYCARGNSYFYALDYWGQGTSVTVSS
chain 2: EIVLTQSPATLSLSPGERATLSCRASESVDSYGKSFMHWYQQKPGQAPRLLIYRASNLESGIPARFSGSGSGTDFTLTISSLEPEDFAVYYCQQSNEDPWTFGGGTKLEIK
B2: 64A10HZ (anti-human PTK7 humanized antibody) (antibody, human IgG1, kappa, V domains shown)
VH: QVQLQESGPGLVKPSETLSLTCTVSGFSLTSYGVYWVRQPPGKGPEWLGVIWTSGNTNYNPSLKSRLTISKDNSKNQVSLKLSSVTAADTAVYYCVKHDGGNYVGVMNYWGQGTLVTVSS
VL: EIVMTQSPDFQSVTPKEKVTITCRASQSISDYLHWYQQKPDQSPKLLIKYASQSISGVPSRFSGSGSGSDFTLTINSLEAEDAATYYCQNGHSFPPTFGQGTKLEIKR
notes: Human IgG1 heavy chain constant region and human Kappa light chain constant region; expressed in CHO-S cells
B3: 101A6HZ (anti-human PTK7 humanized antibody) (antibody, human IgG1, kappa)
heavy: not shown
light: DIVMTQSPDSLAVSLGERATINCKASQDVGSAVIWYQQKPGQSPKLLIYWASTRHTGVPDRFSGSGSGTDFTLTISSLQAEDVAVYYCQQYSSYPLTFGQGTKLEIKRTVAAPSVFIFPPSDEQLKSGTASVVCLLNNFYPREAKVQWKVDNALQSGNSQESVTEQDSKDSTYSLSSTLTLSKADYEKHKVYACEVTHQGLSSPVTKSFNRGEC

One assay has as its target T1, human PTK7 on cells (tumor cells endogenously expressing PTK7); CHO-hPTK7, CHO-S-hPTK7 and 293T-hPTK7 … (human, UniProt Q13308 31-1070).
T1 sequence (looked up): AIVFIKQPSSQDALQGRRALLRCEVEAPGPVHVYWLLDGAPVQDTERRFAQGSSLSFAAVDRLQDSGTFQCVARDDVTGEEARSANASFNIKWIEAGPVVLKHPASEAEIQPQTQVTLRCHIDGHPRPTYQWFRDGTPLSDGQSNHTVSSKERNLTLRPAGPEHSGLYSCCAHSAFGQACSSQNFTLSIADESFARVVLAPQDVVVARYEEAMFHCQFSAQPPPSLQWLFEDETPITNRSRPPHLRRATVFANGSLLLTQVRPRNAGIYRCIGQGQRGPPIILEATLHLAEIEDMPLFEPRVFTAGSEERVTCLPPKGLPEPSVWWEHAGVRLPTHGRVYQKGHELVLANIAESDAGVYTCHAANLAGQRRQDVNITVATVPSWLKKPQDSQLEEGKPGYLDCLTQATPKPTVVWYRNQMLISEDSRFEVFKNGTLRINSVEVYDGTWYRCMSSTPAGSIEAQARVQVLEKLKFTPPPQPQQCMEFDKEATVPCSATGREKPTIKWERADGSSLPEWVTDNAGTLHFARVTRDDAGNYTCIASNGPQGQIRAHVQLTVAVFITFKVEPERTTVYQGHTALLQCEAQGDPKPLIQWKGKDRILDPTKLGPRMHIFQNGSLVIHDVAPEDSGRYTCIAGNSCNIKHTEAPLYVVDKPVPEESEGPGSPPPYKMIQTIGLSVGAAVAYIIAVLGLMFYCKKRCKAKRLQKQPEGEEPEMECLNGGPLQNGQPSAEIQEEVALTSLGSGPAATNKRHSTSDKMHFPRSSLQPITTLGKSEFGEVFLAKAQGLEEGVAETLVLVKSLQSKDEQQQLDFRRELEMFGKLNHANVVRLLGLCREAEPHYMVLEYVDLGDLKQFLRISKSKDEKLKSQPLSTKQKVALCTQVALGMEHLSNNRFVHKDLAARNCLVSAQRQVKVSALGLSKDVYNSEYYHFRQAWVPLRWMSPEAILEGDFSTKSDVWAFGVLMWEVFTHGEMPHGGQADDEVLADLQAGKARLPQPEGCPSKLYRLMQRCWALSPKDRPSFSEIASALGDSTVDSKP
Description: cell-based or functional assay.
Take B1: the “FADU cell endocytosis activity, EC50” value came to 0.18 µg/mL.
As to B2, the “FADU cell endocytosis activity, EC50” value was determined as 0.147 µg/mL.
Consider B3, for which the “FADU cell endocytosis activity, EC50” value was 0.115 µg/mL.

Another assay deals with T2, human PTK7 protein (extracellular sequence of human PTK7 with C-terminal 6×His tag) (human, UniProt Q13308 31-704).
T2 construct: extracellular domain; Expressed transiently in HEK293 cells; also called human PTK7-His; human PTK7-His protein
T2 sequence: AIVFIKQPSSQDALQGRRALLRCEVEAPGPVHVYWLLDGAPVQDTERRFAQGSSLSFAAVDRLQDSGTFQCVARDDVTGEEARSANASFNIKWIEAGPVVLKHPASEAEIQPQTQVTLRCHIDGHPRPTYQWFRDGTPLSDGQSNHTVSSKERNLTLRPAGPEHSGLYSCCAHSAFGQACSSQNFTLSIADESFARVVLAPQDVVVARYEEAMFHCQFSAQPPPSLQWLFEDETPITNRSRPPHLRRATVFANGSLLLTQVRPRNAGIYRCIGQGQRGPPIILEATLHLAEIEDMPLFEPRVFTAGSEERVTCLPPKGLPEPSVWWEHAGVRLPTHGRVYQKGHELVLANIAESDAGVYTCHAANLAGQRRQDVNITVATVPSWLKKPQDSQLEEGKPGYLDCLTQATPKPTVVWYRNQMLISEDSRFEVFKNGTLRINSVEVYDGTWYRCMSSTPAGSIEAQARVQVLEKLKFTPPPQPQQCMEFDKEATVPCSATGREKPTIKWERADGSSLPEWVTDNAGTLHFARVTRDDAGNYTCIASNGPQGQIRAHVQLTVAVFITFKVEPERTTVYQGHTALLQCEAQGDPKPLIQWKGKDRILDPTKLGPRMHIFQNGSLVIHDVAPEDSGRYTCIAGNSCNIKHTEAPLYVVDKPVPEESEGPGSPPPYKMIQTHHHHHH
Description: ELISA, coated human PTK7-His protein 1 µg/ml. On the procedure: The original data was imported into software for nonlinear curve fitting, and the EC₅₀ of binding of each antibody to the human PTK7 was calculated, respectively.
For orientation: ELISA stands for enzyme-linked immunosorbent assay.
For B1, the 50% effective concentration (EC50) came to 0.0466 µg/mL.
The same measure, in the same setting: then B2, with 0.0155 µg/mL; and B3, with 0.0266 µg/mL.

The target of the next assay is T3, monkey PTK7 protein (extracellular sequence of monkey PTK7 with C-terminal 6×His tag) (monkey).
T3 chain: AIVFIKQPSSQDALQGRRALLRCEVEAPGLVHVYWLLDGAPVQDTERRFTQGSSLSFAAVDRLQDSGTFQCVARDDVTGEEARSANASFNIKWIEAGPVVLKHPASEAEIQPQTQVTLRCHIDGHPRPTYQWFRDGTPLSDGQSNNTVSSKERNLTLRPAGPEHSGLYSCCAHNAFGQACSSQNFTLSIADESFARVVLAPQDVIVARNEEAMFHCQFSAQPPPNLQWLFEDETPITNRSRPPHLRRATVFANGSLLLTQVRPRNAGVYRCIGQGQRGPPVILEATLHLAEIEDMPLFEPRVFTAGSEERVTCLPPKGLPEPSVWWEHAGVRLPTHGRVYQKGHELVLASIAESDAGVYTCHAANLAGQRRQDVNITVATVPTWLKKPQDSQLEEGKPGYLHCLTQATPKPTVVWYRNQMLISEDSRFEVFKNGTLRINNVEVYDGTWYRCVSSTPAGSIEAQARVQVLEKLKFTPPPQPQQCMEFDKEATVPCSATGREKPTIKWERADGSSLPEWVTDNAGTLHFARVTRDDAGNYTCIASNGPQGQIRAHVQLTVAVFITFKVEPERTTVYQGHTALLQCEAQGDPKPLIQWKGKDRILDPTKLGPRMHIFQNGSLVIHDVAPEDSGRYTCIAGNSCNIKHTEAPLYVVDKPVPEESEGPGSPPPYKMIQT
Description: BLI (ForteBio), antibody on Protein A sensor, monkey PTK7 protein in solution. The text has this:
(§1) The dynamic affinity of the control Hu24 and candidate antibodies 64A10HZ, 101A6HZ, 4E12HZ and 19C2HZ with human PTK7-His was detected by using ForteBio (Pall life sciences).
ELISA and ForteBio were adopted to detect binding of the anti-human PTK7 chimeric and humanized antibodies to the monkey, mouse and rat PTK7 proteins.
Background: BLI is a label-free optical method that tracks binding on a fibre tip over time.
Regarding B1, the affinity, expressed as Kd, was 11.9 nM.
Same read-out and setting: then B2, with 26.7 nM.
For B3, binding was put at a Kd of 134 nM.

Another assay concerns the target T2, human PTK7 protein (extracellular …). Description: BLI (ForteBio), antibody on Protein A sensor, human PTK7-His 200-3.125 nM, 1:1 global fit.
Excerpt: as §1
Consider B1, for which the Kd is 4.96 nM, the koff was 0.00105 s⁻¹ and the on-rate (kon) was found to be 211000 M⁻¹ s⁻¹.
For B2, in that order: 10.9 nM, 0.00278 s⁻¹ and 255000 M⁻¹ s⁻¹.
Molecule B3 came in with a Kd of 42.4 nM, a koff of 0.00566 s⁻¹ and a kon of 134000 M⁻¹ s⁻¹.
